Source: publication PMC6487837

Assay: confocal microscopy, plasma membrane localisation, HT1080 and HL-1 cells
Details: glycan lost; control: wild-type DSC2-eYFP

Q: Which localisation_or_trafficking does the source give for Desmocollin-2 (DSC2): p.N166Q here?
A: no change

Q: For Desmocollin-2 (DSC2): p.N392Q, which localisation_or_trafficking is on record?
A: no change

Q: For Desmocollin-2 (DSC2): p.N546Q, which localisation_or_trafficking is on record?
A: no change

Q: With Desmocollin-2 (DSC2): p.N629Q as the substance, how does the localisation_or_trafficking read?
A: no change
